Assay results published in article doi:10.1101/2020.04.13.039982 (bioRxiv, 2020).

Target: T1, 6His-She1 C-terminal fragment (residues 194 to 338) (S. cerevisiae, UniProt P38200 194-338)
T1 sequence (looked up): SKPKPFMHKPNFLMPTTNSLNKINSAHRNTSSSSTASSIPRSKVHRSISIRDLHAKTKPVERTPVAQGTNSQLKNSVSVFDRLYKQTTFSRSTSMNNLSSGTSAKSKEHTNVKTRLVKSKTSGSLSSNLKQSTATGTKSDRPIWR
Assay: pull-down

binding result: binds
B1: peptide encompassing the C-terminus of Tub1 (amino acids 415-447), wild-type (peptide)
peptide: not shown
